From patent publication US20150065444

Biological target: Purified 6x His-tagged PCNA, P12004
Sequence (P12004 whole entry): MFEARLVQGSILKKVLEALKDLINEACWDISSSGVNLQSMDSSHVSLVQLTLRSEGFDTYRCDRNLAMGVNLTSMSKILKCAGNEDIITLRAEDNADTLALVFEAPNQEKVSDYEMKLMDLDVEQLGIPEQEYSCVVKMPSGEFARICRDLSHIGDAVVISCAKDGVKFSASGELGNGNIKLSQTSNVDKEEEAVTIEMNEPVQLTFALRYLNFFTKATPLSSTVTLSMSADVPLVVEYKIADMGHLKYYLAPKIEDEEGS

B1: Purified recombinant 6x His-tagged Arm1 (protein)
chain: MAVVPASLSGQDVGSFAYLTIKDRIPQILTKVIDTLHRHKSEFFEKHGEEGVEAEKKAISLLSKLRNELQTDKPFIPLVEKFVDTDIWNQYLEYQQSLLNESDGKSRWFYSPWLLVECYMYRRIHEAIIQSPPIDYFDVFKESKEQNFYGSQESIIALCTHLQQLIRTIEDLDENQLKDEFFKLLQISLWGNKCDLSLSGGESSSQNTNVLNSLEDLKPFILLNDMEHLWSLLSNCKKTREKASATRVYIVLDNSGFELVTDLILADFLLSSELATEVHFYGKTIPWFVSDTTIHDFNWLIEQVKHSNHKWMSKCGADWEEYIKMGKWVYHNHIFWTLPHEYCAMPQVAPDLYAELQKAHLILFKGDLNYRKLTGDRKWEFSVPFHQALNGFHPAPLCTIRTLKAEIQVGLQPGQGEQLLASEPSWWTTGKYGIFQYDGPL
- PCNA-dependent carboxyl methyltransferase activity (vapour diffusion assay): Arm possesses a PCNA-dependent carboxyl methyltransferase activity
